This note sets out measurements from PMC3181058.

This test has as its target Protein A (Staphylococcus aureus) (UniProt P38507). Description: ITC.

In turn, “Nanoparticle-conjugated trastuzumab (CS-DOX-mAb) (antibody)” registered a KA, first binding site of 3.48e+06 M⁻¹; a N, first binding site of 1.65; a dH, first binding site of -393 kJ/mol.
In turn, “Trastuzumab (Herceptin), free monoclonal antibody” registered a dH of -438 kJ/mol and a stoichiometry N of 2.78.

One may read the stoichiometry N as a count of units in the complex or per binding partner.
